# PMC9704045
# pKd: −log10 of the molar value. Read-outs that look alike come from different tables or passages of the source.
# Experiments:
# [1] = biological target: wild-type HexaPro (D614) SARS-CoV-2 spike trimer (SARS-CoV-2); experiment: BLI; Octet Red384; […]; analyte ([…]; HBS-EP+ buffer; 1:1 binding model
# [2] = biological target: wild-type HexaPro (D614) SARS-CoV-2 spike trimer (SARS-CoV-2); experiment: as above; remark: listed apart in the source
substance,measurement,setting,value
"cilgavimab (AZD1061), full-length IgG (antibody)",pKd,[1],> 12.00
same,pKd,[2],9.17
